Measured values: article PMC9706920, “Aryloxypropanolamine targets amyloid aggregates and reverses Alzheimer-like phenotypes in Alzheimer mouse models” (Alzheimer's Research & Therapy, 2022)

Target: T1, Flamma 552-conjugated Aβ(1–42) (Flamma 552 dye conjugated (position not given))
T1 construct: numbers count on: the Aβ peptide; also called Flamma 552-labeled Aβ(1–42); monomeric Aβ(1–42) labeled with fluorescent dye Flamma 552
Assay: peptide or protein array; Aβ hexapeptides and full-length Aβ(1–42), each with a C-terminal cysteine, immobilised on maleimide-activated microplates (50 μg/mL, binding buffer 0.1 M sodium phosphate, 0.15 M NaCl, 10 mM EDTA, pH 7.2); Flamma 552-Aβ(1–42) 10 μM in deionized water (10% DMSO), 37°C, 2 h; fluorescence 555/580 nm as baseline before YIAD002
Details: both partners purified

B1: Aβ(16–21) fragment KLVFFA with a cysteine residue at the C-terminal (peptide)
chain: KLVFFAC
modifications: C-terminal cysteine coupled to the maleimide-activated microplate
notes: amyloid-β residues 16-21; numbers count on: the Aβ peptide; cysteine residue at the C-terminal, told in words, for immobilisation; source: synthetic peptide (Fmoc solid phase peptide synthesis)
B1: binds.

B2: Aβ(32–37) fragment IGLMVG with a cysteine residue at the C-terminal (peptide)
chain: IGLMVGC
modifications: C-terminal cysteine coupled to the maleimide-activated microplate
notes: amyloid-β residues 32-37; numbers count on: the Aβ peptide; cysteine residue at the C-terminal, told in words, for immobilisation; source: synthetic peptide (Fmoc solid phase peptide synthesis)
B2: binds.
